Results as given in paper PMC8809517, “Cofactor-independent RNA editing by a synthetic S-type PPR protein”.

Experiments:
Assay in all cases: high-throughput RNA pulldown from lysate on Ni-NTA beads; HRP: 50 mM Tris pH 8, 150 mM NaCl, 1 mM beta-mercaptoethanol, 50 ug/ml BSA, 3 ug/ml yeast RNA, 0.5% heparin; ITC and FP: Tris pH 8, 200 mM KCl, 5% glycerol; MST: 50 mM Tris pH 8, 200 mM NaCl, 1 mM DTT, BSA, heparin, 0.05% Tween 20
Details in all cases: tags: N-terminal His-eGFP
[1] = target: T1, GFP-9S library array, motif 4 ND N98G;D124H (synthetic construct, N98G;D124H)
T1 chain: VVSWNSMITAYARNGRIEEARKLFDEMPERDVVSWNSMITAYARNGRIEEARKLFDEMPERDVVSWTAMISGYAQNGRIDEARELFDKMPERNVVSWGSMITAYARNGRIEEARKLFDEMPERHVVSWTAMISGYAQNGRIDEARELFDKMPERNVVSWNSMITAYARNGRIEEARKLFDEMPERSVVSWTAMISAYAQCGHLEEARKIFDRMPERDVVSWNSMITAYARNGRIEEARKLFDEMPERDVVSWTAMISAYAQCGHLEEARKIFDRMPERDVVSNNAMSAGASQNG

[2] = target: T2, GFP-9S library array, motif 4 ND D124P (synthetic construct, D124P)
T2 chain: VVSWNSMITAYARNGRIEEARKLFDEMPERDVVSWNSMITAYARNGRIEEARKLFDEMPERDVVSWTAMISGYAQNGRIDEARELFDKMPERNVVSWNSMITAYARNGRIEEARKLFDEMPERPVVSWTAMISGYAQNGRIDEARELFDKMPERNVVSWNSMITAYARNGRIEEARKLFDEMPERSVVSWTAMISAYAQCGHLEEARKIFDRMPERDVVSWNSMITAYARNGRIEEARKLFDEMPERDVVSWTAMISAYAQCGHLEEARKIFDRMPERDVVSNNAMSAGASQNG

[3] = target: T3, GFP-9S library array, motif 4 ND N98T;D124M (synthetic construct, N98T;D124M)
T3 chain: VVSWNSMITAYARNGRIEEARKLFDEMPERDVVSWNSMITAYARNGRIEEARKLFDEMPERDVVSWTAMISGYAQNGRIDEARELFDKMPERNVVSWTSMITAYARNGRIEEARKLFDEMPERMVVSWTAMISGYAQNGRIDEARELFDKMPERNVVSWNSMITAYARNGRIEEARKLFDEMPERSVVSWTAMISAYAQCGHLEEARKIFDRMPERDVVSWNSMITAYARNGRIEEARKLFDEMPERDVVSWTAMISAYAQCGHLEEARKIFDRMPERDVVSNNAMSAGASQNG

[4] = target: T4, GFP-9S library array, motif 4 ND N98A;D124Q (synthetic construct, N98A;D124Q)
T4 chain: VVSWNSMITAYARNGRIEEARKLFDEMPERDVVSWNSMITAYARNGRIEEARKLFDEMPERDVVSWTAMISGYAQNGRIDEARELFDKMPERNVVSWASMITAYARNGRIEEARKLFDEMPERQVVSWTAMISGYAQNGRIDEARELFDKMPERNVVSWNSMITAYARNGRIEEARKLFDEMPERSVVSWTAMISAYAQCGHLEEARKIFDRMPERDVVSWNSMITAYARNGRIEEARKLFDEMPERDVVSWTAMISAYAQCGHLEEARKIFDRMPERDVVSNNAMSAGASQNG

[5] = target: T5, GFP-9S library array, motif 4 ND N98E;D124P (synthetic construct, N98E;D124P)
T5 chain: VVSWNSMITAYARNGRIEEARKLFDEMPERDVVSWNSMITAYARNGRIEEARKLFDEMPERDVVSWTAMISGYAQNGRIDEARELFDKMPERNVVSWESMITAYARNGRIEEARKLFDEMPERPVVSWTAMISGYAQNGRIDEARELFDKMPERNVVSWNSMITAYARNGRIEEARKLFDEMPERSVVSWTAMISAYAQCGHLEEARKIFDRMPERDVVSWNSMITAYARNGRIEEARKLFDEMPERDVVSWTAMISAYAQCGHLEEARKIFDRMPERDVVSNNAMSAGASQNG

AUUAUACGUGA (ssRNA) [IR-rpoA-U] gave a Kd ([1]; label: 5' IRDye 800CW) of 136 nM, a Kd ([2]; label: 5' IRDye 800CW) of 154 nM and a Kd ([3]; label: 5' IRDye 800CW) of 165 nM. For the same binder, the Kd ([4]; label: 5' IRDye 800CW) was 522 nM and the Kd ([5]; label: 5' IRDye 800CW) was 271 nM.

In the case of AUUAGACGUGA (ssRNA) [Cy5-rpoA-G], the Kd ([1]; label: 5' Cy5) is reported as 108 nM, the Kd ([2]; label: 5' Cy5) is reported as 158 nM and the Kd ([3]; label: 5' Cy5) is reported as 107 nM. The Kd ([4]; label: 5' Cy5) was 174 nM and the Kd ([5]; label: 5' Cy5) was 102 nM.

AUUAAACGUGA (ssRNA) [IR-rpoA-A] showed a Kd ([1]; label: 5' IRDye 800CW) of 114 nM, a Kd ([2]; label: 5' IRDye 800CW) of 290 nM and a Kd ([3]; label: 5' IRDye 800CW) of 162 nM. The Kd ([4]; label: 5' IRDye 800CW) was 306 nM and the Kd ([5]; label: 5' IRDye 800CW) was 264 nM.

For AUUACACGUGA (ssRNA) [Cy5-rpoA], the Kd ([1]; label: 5' Cy5) was 91.1 nM, the Kd ([2]; label: 5' Cy5) was 123 nM and the Kd ([3]; label: 5' Cy5) was 101 nM. It also gave a Kd ([4]; label: 5' Cy5) of 249 nM and a Kd ([5]; label: 5' Cy5) of 130 nM.
